Values belong to the binder of their own block, whether it stands above or below them.
Legend:
[1] = molecular target: T1, AlexaFluor647-labeled PCSK9; experiment: TR-FRET competition assay: 1B20 titrated against 10 nM AF647-PCSK9; the blocked ligand is Eu-sLDLR (about 4 nM); the Ratio falls from about 6200 to about 1000 (right curve, squares)
T1 construct: Used in the TR-FRET assay and in the internalization assay; also called AF647-PCSK9; AF-labeled PCSK9
Description: (§1) AlexaFluor647-labeled PCSK9 (final concentration 10 nM) was combined with varying amounts of 1B20 and to this was added Eu(8044)-labeled LDLR ectodomain to a final concentration of ˜4 nM (sufficient to give ˜20,000 counts at F1620 nM on the Rubystar) in […] (pH 7.4), 150 mM NaCl, 0.1 mM CaCl₂, 0.05% (w/v) BSA in a total volume of 50 μL using 96 well black Dynatech U bottom plates. After at least 90 minutes of equilibration, samples were read in a Rubystar reader (BMG Corp.) using 20 flashes per well, a 50 usec integration delay, and a 200 usec total integration time. Data were expressed as the ratio of (F1665/F1620×10000) and an IC₅₀ for 1B20 was determined from the inflection point of a sigmoidal dose-response curve using a standard four parameter fit.

hPCSK9v5His [2] = molecular target: T2, hPCSK9v5His (human, UniProt Q8NBP7 31-692); experiment: cell-based or functional assay
T2 sequence (Q8NBP7 31-692 limits assumed): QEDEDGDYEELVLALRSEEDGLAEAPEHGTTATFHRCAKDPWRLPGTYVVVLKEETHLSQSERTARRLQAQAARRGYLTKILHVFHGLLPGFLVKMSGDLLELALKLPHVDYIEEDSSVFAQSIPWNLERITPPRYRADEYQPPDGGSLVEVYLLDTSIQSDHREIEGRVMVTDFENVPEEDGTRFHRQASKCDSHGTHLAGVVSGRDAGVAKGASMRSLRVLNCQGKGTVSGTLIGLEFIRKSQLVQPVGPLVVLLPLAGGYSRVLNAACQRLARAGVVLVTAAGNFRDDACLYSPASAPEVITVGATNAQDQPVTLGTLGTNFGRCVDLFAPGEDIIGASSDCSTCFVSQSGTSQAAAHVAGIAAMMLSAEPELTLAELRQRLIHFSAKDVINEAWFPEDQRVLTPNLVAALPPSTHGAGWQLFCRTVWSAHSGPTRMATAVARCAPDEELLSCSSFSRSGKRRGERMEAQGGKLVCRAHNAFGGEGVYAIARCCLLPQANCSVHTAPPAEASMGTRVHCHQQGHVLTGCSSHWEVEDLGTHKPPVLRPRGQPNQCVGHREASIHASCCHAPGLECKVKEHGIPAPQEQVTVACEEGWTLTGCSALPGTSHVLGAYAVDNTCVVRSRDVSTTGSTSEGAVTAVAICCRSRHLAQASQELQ

mPCSK9v5His [3] = molecular target: T3, mPCSK9v5His (mouse, UniProt Q80W65 35-694); experiment: cell-based or functional assay
T3 sequence (Q80W65 35-694 limits assumed): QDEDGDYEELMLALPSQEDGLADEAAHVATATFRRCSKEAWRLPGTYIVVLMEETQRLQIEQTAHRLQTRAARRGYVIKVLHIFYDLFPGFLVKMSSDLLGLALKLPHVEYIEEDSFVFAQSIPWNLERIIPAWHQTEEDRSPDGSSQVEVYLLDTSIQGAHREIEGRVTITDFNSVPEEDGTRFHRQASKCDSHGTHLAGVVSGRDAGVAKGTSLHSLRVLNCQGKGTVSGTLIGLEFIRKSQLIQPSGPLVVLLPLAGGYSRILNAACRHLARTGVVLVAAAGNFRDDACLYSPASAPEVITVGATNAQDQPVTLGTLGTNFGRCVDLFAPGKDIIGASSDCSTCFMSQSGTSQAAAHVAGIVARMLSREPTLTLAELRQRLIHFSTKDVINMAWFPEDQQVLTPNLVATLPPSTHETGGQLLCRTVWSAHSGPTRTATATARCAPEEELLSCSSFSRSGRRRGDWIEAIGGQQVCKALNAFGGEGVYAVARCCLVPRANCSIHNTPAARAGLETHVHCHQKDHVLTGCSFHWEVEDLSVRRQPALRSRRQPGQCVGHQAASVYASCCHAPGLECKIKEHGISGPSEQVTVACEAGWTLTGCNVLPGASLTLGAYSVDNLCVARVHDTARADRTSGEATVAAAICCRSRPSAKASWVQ

hPCSK9v5His [4] = molecular target: T2, hPCSK9v5His; experiment: SPR Biacore 2000; Fab captured on anti-Fab IgG, PCSK9 in flow
Description: (§2) Anti-Fab IgG (Human specific) (Sigma, catalog #15260) was covalently coupled to surfaces 1 and 2 of a Sensor Chip CM5 via primary amine groups, using the immobilization wizard with the “Aim for immobilization” option using Biacore™ Amine Coupling Kit (cat#BR-1000-50. A target immobilization of 5000 RU was specified. The wizard uses a 7 minute activation with a 1:1 mixture of 100 mM NHS (N-Hydroxysuccinimide) and 400 mM EDC (1-ethyl-3-(3-dimethylaminopropyl)-carbodiimide), injects the ligand in several pulses to achieve the desired level, then deactivates the remaining surface with a 7 minute pulse of ethanolamine.
(§3) Anti-PCSK9 Fabs were captured on capture surface 2, and surface 1 was used as a reference for kinetic studies of Fab:PCSK9 interactions. […] 5-10 concentrations of hPCSK9v5H is or mPCSK9v5His antigens were flowed across the surface at […] for 3-4 minutes. 15-60 minutes dissociation time was allowed before regeneration of the Anti-Fab surface with a 30 second pulse of 10 mM glycine pH 2.0.
(§4) BiaEvaluation Software was used to evaluate the sensograms from the multiple concentration of PCSK9 antigen analyzed with each Fab, to estimate the kinetics constants of the Fab:PCSK9 interactions.

mPCSK9v5His [5] = molecular target: T3, mPCSK9v5His; experiment: as above
Description: as §2, §3, §4

hPCSK9v5His [6] = molecular target: T2, hPCSK9v5His; experiment: SPR Biacore 2000; IgG captured on goat anti-human IgG, PCSK9 in flow
Description: (§5) A goat Anti-Human IgG (Caltag, catalog #H10700) was covalently coupled to surfaces 1 and 2 of a Sensor Chip CM5 via primary amine groups, using the immobilization wizard with the “Aim for immobilization” option using Biacore™ Amine Coupling Kit (cat#BR-1000-50. A target immobilization of 5000 RU was specified. The wizard uses a 7 minute activation with a 1:1 mixture of 100 mM NHS (N-Hydroxysuccinimide) and 400 mM EDC (1-ethyl-3-(3-dimethylaminopropyl)-carbodiimide), injects the ligand in several pulses to achieve the desired level, then deactivates the remaining surface with a 7 minute pulse of ethanolamine.
(§6) Anti-PCSK9 IgGs were captured on capture surface 2, and surface 1 was used as a reference for kinetic studies of IgG:PCSK9 interactions. IgG was captured by flowing a 10 nM solution at 10 μl/min for 1-1.5 minutes to reach a target RL for an R max of 100-150 RU for the reaction. 5-10 concentrations of hPCSK9v5His or mPCSK9v5His antigens were flowed across the surface at 30 or 60 μl/minute for 4 minutes. 15-60 minutes dissociation time was allowed before regeneration of the Anti-IgG surface with a 60 second pulse of 10 mM Glycine pH 1.7.
(§7) BiaEvaluation Software was used to evaluate the sensograms from the multiple concentration of PCSK9 antigen analyzed with each IgG, to estimate the kinetics constants of the IgG:PCSK9 interactions.

mPCSK9v5His [7] = molecular target: T3, mPCSK9v5His; experiment: as above
Description: as §5, §6, §7

[8] = molecular target: T1, AlexaFluor647-labeled PCSK9; experiment: TR-FRET competition assay: 1B20 titrated against 10 nM AF647-PCSK9; the blocked ligand is Eu-sLDLR (about 4 nM); the Ratio falls from about 6200 to about 1000 (left curve, circles)
Description: as §1

hPCSK9v5His [9] = molecular target: T2, hPCSK9v5His; experiment: Bio-Rad ProteOn SPR, Fab against human PCSK9-V5-His
Description: Additional site-directed mutant variants of 1B20 were generated (mutations in the heavy chain) and are disclosed herein as SEQ ID NOs: 102-107. Kds of site-directed mutant variants of 1B20 Fabs were determined using a Bio-Rad ProteOn; with affinity being measured against human PCSK9-V5-His. The methodologies for measuring Fab affinities are essentially the same as previously described for Biacore®.

T1 sequence (Q8NBP7 153-692, chain 1 of 2): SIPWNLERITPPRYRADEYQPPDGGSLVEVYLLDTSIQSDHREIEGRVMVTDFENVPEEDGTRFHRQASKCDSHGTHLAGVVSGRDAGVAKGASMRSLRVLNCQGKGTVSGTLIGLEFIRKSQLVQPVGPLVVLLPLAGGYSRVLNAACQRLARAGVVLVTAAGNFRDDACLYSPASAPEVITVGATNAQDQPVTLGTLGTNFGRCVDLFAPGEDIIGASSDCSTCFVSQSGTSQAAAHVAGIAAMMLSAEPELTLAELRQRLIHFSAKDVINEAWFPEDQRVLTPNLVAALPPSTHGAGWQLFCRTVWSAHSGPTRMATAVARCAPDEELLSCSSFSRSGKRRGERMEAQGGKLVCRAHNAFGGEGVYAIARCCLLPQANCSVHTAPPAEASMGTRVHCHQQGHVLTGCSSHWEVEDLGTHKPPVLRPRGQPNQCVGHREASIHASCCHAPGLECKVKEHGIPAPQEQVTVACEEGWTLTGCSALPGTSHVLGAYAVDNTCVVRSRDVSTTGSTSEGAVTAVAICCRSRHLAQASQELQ
T1 sequence (Q8NBP7 31-152, chain 2 of 2): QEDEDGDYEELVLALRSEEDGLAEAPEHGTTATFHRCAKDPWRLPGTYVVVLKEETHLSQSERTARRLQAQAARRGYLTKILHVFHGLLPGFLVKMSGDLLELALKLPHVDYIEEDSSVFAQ

- IC50 [1]: 25.8 nM
- IC50, inhibition of PCSK9-dependent loss of cellular LDL-uptake (Exopolar assay, HEK cells) (hPCSK9v5His [2]): 145 nM
- IC50, inhibition of PCSK9-dependent loss of cellular LDL-uptake (Exopolar assay, HEK cells) (mPCSK9v5His [3]): 152 nM
- Ka (hPCSK9v5His [4]): 1.5e+09 M⁻¹
- Kd (hPCSK9v5His [4]): 0.74 nM
- koff (hPCSK9v5His [4]): 4.8e-05 s⁻¹
- kon (hPCSK9v5His [4]): 66000 M⁻¹ s⁻¹
- Ka (mPCSK9v5His [5]): 2e+09 M⁻¹
- Kd (mPCSK9v5His [5]): 0.51 nM
- koff (mPCSK9v5His [5]): 7.2e-05 s⁻¹
- kon (mPCSK9v5His [5]): 141000 M⁻¹ s⁻¹
B1: 1B20 Fab (Fab, V domains shown)
VH: QVQLVQSGAEVKKPGESLKISCKGSGYSFTNYWISWVRQMPGKGLEWMGIIYPGDSYTNYSPSFQGQVTISADKSISTAYLQWSSLKASDTAMYYCARDYWYKPLFDIWGQGTLVTVSS
VL: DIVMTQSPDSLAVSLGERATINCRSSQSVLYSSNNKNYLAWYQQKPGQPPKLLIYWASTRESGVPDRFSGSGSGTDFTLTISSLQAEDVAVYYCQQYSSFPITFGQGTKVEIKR
notes: His-tagged Fab expressed in E. coli and purified by IMAC; also called 6CX1B20

- Ka (hPCSK9v5His [6]): 1.4e+09 M⁻¹
- Kd (hPCSK9v5His [6]): 0.89 nM
- koff (hPCSK9v5His [6]): 4.3e-05 s⁻¹
- kon (hPCSK9v5His [6]): 53000 M⁻¹ s⁻¹
- Ka (mPCSK9v5His [7]): 7.4e+08 M⁻¹
- Kd (mPCSK9v5His [7]): 1.4 nM
- koff (mPCSK9v5His [7]): 0.00012 s⁻¹
- kon (mPCSK9v5His [7]): 89000 M⁻¹ s⁻¹
- IC50 [8]: 2.8 nM
- IC50, inhibition of PCSK9-dependent loss of cellular LDL-uptake (Exopolar assay, HEK cells) (hPCSK9v5His [2]): 22 nM
- IC50, inhibition of PCSK9-dependent loss of cellular LDL-uptake (Exopolar assay, HEK cells) (mPCSK9v5His [3]): 13 nM
B2: 1B20 IgG (antibody, V domains shown)
VH: QVQLVQSGAEVKKPGESLKISCKGSGYSFTNYWISWVRQMPGKGLEWMGIIYPGDSYTNYSPSFQGQVTISADKSISTAYLQWSSLKASDTAMYYCARDYWYKPLFDIWGQGTLVTVSS
VL: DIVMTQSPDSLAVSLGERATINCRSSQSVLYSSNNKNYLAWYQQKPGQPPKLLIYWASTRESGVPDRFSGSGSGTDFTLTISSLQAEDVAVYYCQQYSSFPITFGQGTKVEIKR
notes: Full-length IgG2m4 with kappa light chain, expressed in HEK293 cells, purified on Protein A; also called 1B20 whole IgG; 1B20 IgG2m4

- Kd (hPCSK9v5His [9]): 0.013 nM
B3: 1B20 Fab variant N59K (Fab, V domains shown)
VH: QVQLVQSGAEVKKPGESLKISCKGSGYSFTNYWISWVRQMPGKGLEWMGIIYPGDSYTKYSPSFQGQVTISADKSISTAYLQWSSLKASDTAMYYCARDYWYKPLFDIWGQGTLVTVSS
VL: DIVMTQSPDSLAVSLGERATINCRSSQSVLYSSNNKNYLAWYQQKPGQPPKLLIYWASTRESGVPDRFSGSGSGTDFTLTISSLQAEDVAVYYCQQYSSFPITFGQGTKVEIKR
notes: Site-directed variant of the 1B20 Fab, 'mutations in the heavy chain'

- Kd (hPCSK9v5His [9]): 1.37 nM
B4: 1B20 Fab variant W101A (Fab, V domains shown)
VH: QVQLVQSGAEVKKPGESLKISCKGSGYSFTNYWISWVRQMPGKGLEWMGIIYPGDSYTNYSPSFQGQVTISADKSISTAYLQWSSLKASDTAMYYCARDYAYKPLFDIWGQGTLVTVSS
VL: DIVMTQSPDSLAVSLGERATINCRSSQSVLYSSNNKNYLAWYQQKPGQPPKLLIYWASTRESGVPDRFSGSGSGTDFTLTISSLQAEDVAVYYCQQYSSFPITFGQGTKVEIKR
notes: as for B3

- Kd (hPCSK9v5His [9]): 0.049 nM
B5: 1B20 Fab variant N59R (Fab, V domains shown)
VH: QVQLVQSGAEVKKPGESLKISCKGSGYSFTNYWISWVRQMPGKGLEWMGIIYPGDSYTRYSPSFQGQVTISADKSISTAYLQWSSLKASDTAMYYCARDYWYKPLFDIWGQGTLVTVSS
VL: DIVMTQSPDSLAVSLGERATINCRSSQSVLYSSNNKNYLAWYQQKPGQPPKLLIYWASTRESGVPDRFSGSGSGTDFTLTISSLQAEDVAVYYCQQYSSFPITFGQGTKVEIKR
notes: as for B3

- Kd (hPCSK9v5His [9]): 1.12 nM
B6: 1B20 Fab variant W101F (Fab, V domains shown)
VH: QVQLVQSGAEVKKPGESLKISCKGSGYSFTNYWISWVRQMPGKGLEWMGIIYPGDSYTNYSPSFQGQVTISADKSISTAYLQWSSLKASDTAMYYCARDYFYKPLFDIWGQGTLVTVSS
VL: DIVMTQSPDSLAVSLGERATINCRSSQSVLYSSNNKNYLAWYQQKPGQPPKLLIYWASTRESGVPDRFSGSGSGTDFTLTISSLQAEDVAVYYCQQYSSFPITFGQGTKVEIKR
notes: as for B3

- Kd (hPCSK9v5His [9]): 0.78 nM
B7: 1B20 Fab variant W101Y (Fab, V domains shown)
VH: QVQLVQSGAEVKKPGESLKISCKGSGYSFTNYWISWVRQMPGKGLEWMGIIYPGDSYTNYSPSFQGQVTISADKSISTAYLQWSSLKASDTAMYYCARDYYYKPLFDIWGQGTLVTVSS
VL: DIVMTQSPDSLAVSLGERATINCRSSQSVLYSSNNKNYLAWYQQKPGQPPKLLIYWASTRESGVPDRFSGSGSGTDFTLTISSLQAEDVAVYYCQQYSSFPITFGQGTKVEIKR
notes: as for B3

- Kd (hPCSK9v5His [9]): 0.117 nM
B8: 1B20 Fab variant N59Q (Fab, V domains shown)
VH: QVQLVQSGAEVKKPGESLKISCKGSGYSFTNYWISWVRQMPGKGLEWMGIIYPGDSYTQYSPSFQGQVTISADKSISTAYLQWSSLKASDTAMYYCARDYWYKPLFDIWGQGTLVTVSS
VL: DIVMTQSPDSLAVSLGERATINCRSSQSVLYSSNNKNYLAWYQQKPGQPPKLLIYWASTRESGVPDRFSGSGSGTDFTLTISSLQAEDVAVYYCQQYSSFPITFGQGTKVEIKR
notes: as for B3
